In the nanobody polyreactivity screen of Harvey et al. (2022):

Assay: yeast display, Sf9 membrane polyspecificity reagent, FACS + sequencing; frameworks hold sequencing errors
Procedure, shortened: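 Synthetic nanobody libraries on Saccharomyces cerevisiae BJ5465 were galactose-induced for 36–48 hours, stained 1 hour at 4 °C with 10% biotinylated, detergent-solubilized Sf9 membrane reagent and enriched on streptavidin microbeads. FACS then separated cells into low and high (top ~1%) gates by anti-HA (expression) and streptavidin (reagent binding) fluorescence. Genes were colony-PCR amplified, MiSeq 2 × 250 sequenced and CDR-length filtered. A clone's polyreactivity label is that of its gate of origin.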

Sequence	polyreactivity (PSR sort gate)
QVQLVESGGGLVQAGGSLRLSCAASGSTFSDYAMGWYRQAPGKERELVADISSDGSTYYADSVKGRFTISRDNAKNTVYLQMNSLKPEDTAVYYCNAGYPDYDWTWWHISYDYWGQGTQVTVSS	low polyreactivity
QVQLVESGGGLVQAGGSLRLSCAASGRIFSYYAMGWYRQAPGKERELVAAISYSTTSTYYADSVKGRFTISRDNAKNTVYLQMNSLKPEDTAVYYCAAEFQPGSYTPTYDYWGQGTQVTVSS	low polyreactivity
QVQLVESGGGLVQAGGSLRLSCAASGRSFQGYAMGWYRKAPGKERELVAAISWSGGSTYYADSVKGRFTISRDNAKNTVYLQMNSLKPEDTAVYYCAASYDIYGNYRRYDYWGQGTQVTVSS	high polyreactivity
QVQLVESGGGLVQAGGSLRLSCAASGSIFTGYTMGWYRPAPGKEREFVAAIRATGGSTYYADSVKGRFTISRDNAKNTVYLQMNSLKPEDTAVYYCAVRSGVGSVRKRYGYWGQGTQVTVSS	high polyreactivity
QVQLVESGGGLVQAGGSLRLSCAASGRIFAVNALGWYRQAPGPERELVATIRGSGTSTYYADSVKGRFTISRDHATNTVYLQMNSLKPEDTAVYYCAKAYNGRYTWRYDYWGQGTQVTVSS	high polyreactivity
QVQLVESGGGLVQAGGSLRLSCAASGFTFKHYAMGWYRQAPGKEREFVAAITGSGGSTYYADSVKGRFTISRDNAKITVYLEMNSLKPEDTAVYYCAASDVSRYRPYRRFDYWGQGTQVTVSS	high polyreactivity
QVQLVDSGGVLFQAGVSLLISCYASGITFYSYALGRNRRAPGKDWELVASITKSSGRTYYADSVKGRFTISRDNAKTTVSLQMNSVKPEDTAVYYCKAYYVALPPNMDYWGQGTQVTVSS	high polyreactivity
QVQLVESGGGLVQAGGSLRLSCAASGRTFDRYAMGWYRQAPGKERELVATISRRSSITYYADSVKGRFTISRDNAKNTVYLQMNRLKPEDTAVYYCAATSLYPTWRRGYDYWGQGTQVTVSS	high polyreactivity
QVQLVESGGGLVQAGGSLRLSCAASGSIFAYYTMGWYRQAPGNERELVATISSGDITNYADSVKGRFTISRDNAKNTVYLQMNSLKPEDTAVYYCAAAELTSYYRTFIHQDYDYWGQGTQVTVSS	low polyreactivity
QVQLVESGGGLVQAGGSLRLSCAASGSTLYAYAMGWYRQAPGKERELVAGISSSGARTYYADSVKGRFTISRDNAKITVYLQMNSLKPEDTAVYYCAALAPVGTSKSYGYWGQGTQVTVSS	high polyreactivity
QVQLVESGRGLVQAGGSLRLSFAASGITFGPNEMGWYRQAPGKERELVAAISKSGGTTYYADSVKGRFTISRDNAKNTDYLQMNSLKPEDTAVYYCAARCYPYYASFRYDYWGQGTQVTVSS	high polyreactivity
QVQLVESGGGLVQAGGSLRLSCAASGIIFRLNTMGWYRQAPGKERELVAAITSGGSTQYADSVKGRFTISRDNAKNTVYLQMNSLKPEDSAVYYCAAGHRANYWAWHFYYPGDFWGQGTQVTVSS	low polyreactivity
QVQLVESGGGLVQAGGSLRLSFAASGITFSSYAMGLYRQAPGKERELVARISTDADTYYADSVKGRFTISRDNAKNTVYLQMNSLKPEDTAVYYCAAEDYWDFDYWGQGTQVTVSS	low polyreactivity
QVQIVESGGGLVQAGGSLRLSCPASGLTFAWYAMGWYRQAPWTERELVAAINRSGGSTSYADSVKGRFTISRDNAMNTVYLQMNSLKPEDTAVYYCAAQLGYTTLGLIYWGQGTQVTVSS	low polyreactivity
QVQLVESGVALVQAAGSLRLRCAAYGSTFSYNAMGWYRQATGKERELVAAISGSGGTTYYADSVKGRFTISRDNAKNTVYLQMNSLKPEDTAVYYCAAELTRYRYFYHKRPMDYWGQGTQVTVSS	low polyreactivity
QVQLEESGGGLVQAGGTLRLRCAASVIIYDDKTMGWYRQAPGKEMELVAPISSSRGSTYYADSVKGRFTISRDNAKNTVYLQMNSLKPEDTAVYYCAAAVYYTYPYIVFRNYPEFDYWGQGTQVSVSS	low polyreactivity
QVQLVESGGGLVQAGGSLRLSCAASGLTFGGSAMGWYRQAPGKERELVAGISSSGNTNYADSVKGRFTISRDNAKNTVYLQMISLKPEDTAVYYCAADENITYPVYDMYYWGQGTQVTVSS	low polyreactivity
LVQLVESGGGLVQAGGSLRLSCAASGSTFIPYAMGWYRQAPGKERELVAAIRGGDGSTYYADSVKGRFTISRDNAKNTVYLQMNSLKPEDTAVYYCAADTVITAYFYRFWRYNYWGQGTQVTVSS	low polyreactivity
QVQLVESGGGLVQAGGSLRLSCAASGRIFRYNAKGWYRQAPGKERELVAAISRDGSTYYADSVKGRFTISRDNAKNTVYLQMKSLKPEDTAVYYCAAGYSRRGWRRAYNYWGQGTQVTVSS	high polyreactivity
QVQLQGSGGGLVQAGGSLRLSCAASGYIFQNVPMGWNRQAPGKERELVAGIDNGTSTNYADSVNGRFTISRDNAKKTVYLQMNSLKPEDTAVYYCAAAGQADNTLGYWGQGTQVTVSS	low polyreactivity
QVQLVESGGGLVQAGGSLRLSCAASGSIFNGNAMGWYRQAPGKERELVAAITRRGGRTYYADSVKGRFTISRDNAKNTVYLQMNSLKPDDTAVYYCNAYSKAVQGGYDYWGQGTQVTVSS	high polyreactivity
QVQLVESGGGLVQAGGSLRLSCAASGSTFRAYAMGWYRQAPGKEREFVASISWSGGRTYYADSVKGRFTISRDNAKNTVYLQMNSLKPEDTAVYYCAVDLSTHDYDYWGQGTQVTVSS	low polyreactivity

Sequence	polyreactivity (PSR sort gate)
QVQLVESGGGLVQAGGSLRLSCAASGFIFANNAMVWYRQAPGKERELVAVISQRGGRTYYADSVKGRFTISRDNAKNTVYLQMNSLKPADTAVYYCAASYSIAYVSPRNWHDYWGQGTQVTVSS	low polyreactivity
QVQLEESRGGLVQAGGSLRLSFAAYGFTYFGYAMGWYRQAPGKERELVAAISTIDGDTYYADSVKGRFTISRDNAKNTFYLLMNSLKPEDNAFYYCAADDYIDGDDYWGQGTQVSVSS	low polyreactivity
QVQLVESGGGLVQAGGSLRLSCAASGRIFTSYAMGWYRQAPGKERELVAAISRRGDSTYYADSVKGRFTISRDNAKNTVYLQMNSLKPEDTAVYYCNARSSRIWDYYGFDYWGQGTQVTVSS	high polyreactivity
LVQLVESGGGLVQAGGSLRLSCAASGRTFPGYAMGGYSQAPGKERELVASINFRGGGTYADSVKGRFTISRDNAKNTVYLLMNSLKPEDTAVYYCAAEYFWGKRRFGYWGQGTQVTVSS	high polyreactivity
QVQLVESGGGLVQAGGSLRLSCAASGRIFGVYALGWYRQAPGKARELVAVINGRGSRTYYADSVKGRFRISRDNAKNTVYLQMNSLKPEDTAVYYCAAGYPASEYDYWGQGTQVTVSS	high polyreactivity
QVQLVESGGGLVQAGGSLRLSCAASGFTFYYYTMGWYRQAPGKEMELVADISSGDRTYYADSVKGRFTISRDNAKNTVYLQMNSLKPEDTAVYYCAAPAKYYTRFGHYILNQDYDSWGQGTQVTVSS	low polyreactivity
QVQLVESGGGLVQAGGSLRLSCAASGRTFDSYTMGWYRQAPGKERELVARIRWSGGSTYYADSVKGRFTISRDNAKNTVYLQMNSLKPEDTAVYYCAVYQYVGYTMDYWGQGTQVTVSS	low polyreactivity
QVQLVESGGGLVQAGGSLRLSCAASGSIFPYNAMGWYRQAPGKERELVATISSGGSTNYADSVKGRFTISRDNAKNTVYLHMNSLKPEDTAVYYCAADVIVFYYAPNYWGDIGYGYWGQGTQVTVSS	low polyreactivity
QVQLVESGGGLVQAGGSLRLSCAASGIILRYYAMGWYRQAPGKEREMVAAISYSGGRTYYADSVKGRFTISRDNAKNTVYLQMNSLKPEDTAVYYCAADYGYRIIASYDYWGQGTQVTVSS	high polyreactivity
QVQLVESGGGLVQAGGSLRLSCAASGFTFLRNAMGWYRQAPGKERELVAAISRSDRTNYADSVKGRFTISRDNAKNTFYLQMNSLKPEDTAVYYCNARHSYWTGRRVTDDYDYWGQGTQVTVSS	high polyreactivity
QVQLVESGGGLVQAGGSLRLSCAASGYIFGVYTMGWYRQAPGKERELVAGISSGSSTYYADSVKGRFTISRDNAKNTVYLQMNSLKPEDTAVYYCAARERSRTYTSRKQVDYGYGYWGQGTQVTVSS	low polyreactivity
QVQLVESGGGLVQAGGSLRLSCAASGFIFRSYAMGWYRQAPGKERELVAAISSSGGRTYYADSVKGRFTISRDNAKNTVYLQMNSLKPEDTAVYYCATSLYTDNSWDNYWGQGTQVTVSS	high polyreactivity
QVQLVESCGGLVQAGGSLRLSCAASGYIFVNYAMGWYRQAPGKQRELVARITGSGGSTDYADSVKGRFTISRDNAKNTVYLQMNSLKPEDTAVYYCNTKYVRYLRYYTYKYWGHGTQVTVSS	low polyreactivity
QVQLVESGVGLVQAGGSLRLSCAASGNTFGKYAMGWYRQAPGTERELVATITRRGGSTYYADSVKGRFTISRDKAKNSVYLQMNSLKPEDTAVYYCNRAVTYVTYVYWGQGTQVTVSS	high polyreactivity
QVQLVESGGGLVQAGGSLRLSCAASGSTFNRYAMGWYRQAPGKERELVAAISWNGGSTYYADSVKGRFTSSRDNAKNTVYLQMNSLKPEDTAVYYCATLVRKYDGFNYWGQGTQVTVSS	high polyreactivity
QVQLVESGGGLVQAGGSLRLSCAASGYTFTGYAMGWYRQAPGKERELVAAITSIGGSTYYADSVKGRFTISRDNAKNTVYLQMNSLKPEDTAVYYCAAEGDYVYDMDYWGQGTQVTVSS	low polyreactivity
QEQLQESGGCPVLAGGSLRLSCAASGTIFVRLDMGWYRQAPGKEREFVATIGSGSSTYYADSVKGSFTISRDNVKNTVYLQMNSLKPEDTAVYYCAVSAAEQSRHYYWDQGTQVTVSS	low polyreactivity
QVQLVESGAGLVKAGGSLRLSSAASGSTFGEYDMGWYRQAPGKERELVASITFSAGSTDYADSVKGRFTISRDNAKNTVYLQMNSLNPEDTAVYYCAADGWWPWEYDYWGQGTQGTVSS	low polyreactivity
QVQLVESGGGLVQAGGSLRLSCAASGSTFPYNTMGWYRQAPGKEREFVAAITGDGGTTYYADSVKGRFTISRDNAKNTVYLQMYSLKPEDTAVYYSAVPYPAEGYGGDYWGQGTQVTVSS	low polyreactivity
QVQHEDSGGGLVQAGGSLRLSCAASGRIFLYYAMGWYRQAPGKERELVAAISSGTSTYYADSVKGRFTISRDNAKNTVYLQMNSLKPEDTAVYYCAAYYYSYPTNGGYGYWGQGTQVTVSS	low polyreactivity
QVQLVESGGGLVQAGGSLRLSCAASGRIFGVNAMGWYRQAPGKERELVAVISSGGSTYYADSVKGRFTISRDNAKKTVYLQMNSLKPEDTEVYYCDRKSYNFIPGNREYDYWGQGTQVTVSS	low polyreactivity
